From PMC13086950 (Nature Communications, 2026) come the findings set out here.

Series [1] concerns the molecule itself. The series can be described thus: SEC-MALS; fraction B1’ of GephFL, 100 μL at 1.2 mg/mL, Superose 6 Increase 10/300 GL, 20 mM HEPES pH 8.0, 150 mM NaCl, 1 mM EDTA, 5 mM β-mercaptoethanol.
Series [2] concerns the molecule itself. Kind of series: SEC-MALS; fraction A2’ of GephFL, 100 μL at 1.3 mg/mL, Superose 6 Increase 10/300 GL, 20 mM HEPES pH 8.0, 150 mM NaCl, 1 mM EDTA, 5 mM β-mercaptoethanol.
Series [3] concerns the molecule itself. The series can be described thus: SEC-MALS; fraction A1 of GephFL, 100 μL at 1.3 mg/mL, Superose 6 Increase 10/300 GL, 20 mM HEPES pH 8.0, 150 mM NaCl, 1 mM EDTA, 5 mM β-mercaptoethanol.

B1: Full-length gephyrin, splice variant P1 (natural protein)
chain: MAHHHHHHGGSSGGSSEFMATEGMILTNHDHQIRVGVLTVSDSCFRNLAEDRSGINLKDLVQDPSLLGGTISAYKIVPDEIEEIKETLIDWCDEKELNLILTTGGTGFAPRDVTPEATKEVIEREAPGMALAMLMGSLNVTPLGMLSRPVCGIRGKTLIINLPGSKKGSQECFQFILPALPHAIDLLRDAIVKVKEVHDELEDLPSPPPPLSPPPTTSPHKQTEDKGVQCEEEEEEKKDSGVASTEDSSSSHITAAALAAKIPDSIISRGVQVLPRDTASLSTTPSESPRAQATSRLSTASCPTPKVQSRCSSKENILRASHSAVDITKVARRHRMSPFPLTSMDKAFITVLEMTPVLGTEIINYRDGMGRVLAQDVYAKDNLPPFPASVKDGYAVRAADGPGDRFIIGESQAGEQPTQTVMPGQVMRVTTGAPIPCGADAVVQVEDTELIRESDDGTEELEVRILVQARPGQDIRPIGHDIKRGECVLAKGTHMGPSEIGLLATVGVTEVEVNKFPVVAVMSTGNELLNPEDDLLPGKIRDSNRSTLLATIQEHGYPTINLGIVGDNPDDLLNALNEGISRADVIITSGGVSMGEKDYLKQVLDIDLHAQIHFGRVFMKPGLPTTFATLDIDGVRKIIFALPGNPVSAVVTCNLFVVPALRKMQGILDPRPTIIKARLSCDVKLDPRPEYHRCILTWHHQEPLPWAQSTGNQMSSRLMSMRSANGLLMLPPKTEQYVELHKGEVVDVMVIGRL
For the protein B1, the “stoichiometry N” value in series [1] was 2; in series [2], around 4; in series [3] it was around 6.
